Target: T1, human recombinant LAP β1 (R&D), not treated with protease
T1 chain: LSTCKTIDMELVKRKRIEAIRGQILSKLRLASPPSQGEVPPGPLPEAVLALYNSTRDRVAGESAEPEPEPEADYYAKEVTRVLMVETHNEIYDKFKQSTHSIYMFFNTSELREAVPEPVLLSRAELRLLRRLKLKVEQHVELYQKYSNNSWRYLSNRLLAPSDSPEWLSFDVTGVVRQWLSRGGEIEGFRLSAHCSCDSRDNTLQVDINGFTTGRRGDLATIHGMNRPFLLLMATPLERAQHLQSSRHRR

B1: human matrix metalloprotease 2 (MMP2) (Alexis), APMA-activated (protein)
chain: YNFFPRKPKWDKNQITYRIIGYTPDLDPETVDDAFARAFQVWSDVTPLRFSRIHDGEADIMINFGRWEHGDGYPFDGKDGLLAHAFAPGTGVGGDSHFDDDELWTLGEGQVVRVKYGNADGEYCKFPFLFNGKEYNSCTDTGRSDGFLWCSTTYNFEKDGKYGFCPHEALFTMGGNAEGQPCKFPFRFQGTSYDSCTTEGRTDGYRWCGTTEDYDRDKKYGFCPETAMSTVGGNSEGAPCVFPFTFLGNKYESCTSAGRSDGKMWCATTANYDDDRKWGFCPDQGYSLFLVAAHEFGHAMGLEHSQDPGALMAPIYTYTKNFRLSQDDIKGIQELYGASPDIDLGTGPTPTLGPVTPEICKQDIVFDGIAQIRGEIFFFKDRFIWRTVTPRDKPMGPLLVATFWPELPEKIDAVYEAPQEEKAVFFAGNEYWIYSASTLERGYPKPLTSLGLPPDVQRVDAAFNWSKNKKTYIFAGDKFWRYNEVKKKMDPGFPKLIADAWNAIPDNLDAVVDLQGGGHSYFFKGAYYLKLENQSLKSVKFGSIKSDWLGC
- degradation of LAP β1 (SDS-PAGE, silver staining): degradation of LAP could not be confirmed

B2: human matrix metalloprotease 9 (MMP9) (Alexis), APMA-activated (protein)
chain: MRTPRCGVPDLGRFQTFEGDLKWHHHNITYWIQNYSEDLPRAVIDDAFARAFALWSAVTPLTFTRVYSRDADIVIQFGVAEHGDGYPFDGKDGLLAHAFPPGPGIQGDAHFDDDELWSLGKGVVVPTRFGNADGAACHFPFIFEGRSYSACTTDGRSDGLPWCSTTANYDTDDRFGFCPSERLYTQDGNADGKPCQFPFIFQGQSYSACTTDGRSDGYRWCATTANYDRDKLFGFCPTRADSTVMGGNSAGELCVFPFTFLGKEYSTCTSEGRGDGRLWCATTSNFDSDKKWGFCPDQGYSLFLVAAHEFGHALGLDHSSVPEALMYPMYRFTEGPPLHKDDVNGIRHLYGPRPEPEPRPPTTTTPQPTAPPTVCPTGPPTVHPSERPTAGPTGPPSAGPTGPPTAGPSTATTVPLSPVDDACNVNIFDAIAEIGNQLYLFKDGKYWRFSEGRGSRPQGPFLIADKWPALPRKLDSVFEERLSKKLFFFSGRQVWVYTGASVLGPRRLDKLGLGADVAQVTGALRSGRGKMLLFSGRRLWRFDVKAQMVDPRSASEVDRMFPGVPLDTHDVFQYREKAYFCQDRFYWRVSSRSELNQVDQVGYVTYDILQCPED
- degradation of LAP β1 (SDS-PAGE, silver staining): degradation of LAP could not be confirmed

B3: human blood-derived plasmin (PLN) (Sigma) (protein)
chain: KVYLSECKTGNGKNYRGTMSKTKNGITCQKWSSTSPHRPRFSPATHPSEGLEENYCRNPDNDPQGPWCYTTDPEKRYDYCDILECEEECMHCSGENYDGKISKTMSGLECQAWDSQSPHAHGYIPSKFPNKNLKKNYCRNPDRELRPWCFTTDPNKRWELCDIPRCTTPPPSSGPTYQCLKGTGENYRGNVAVTVSGHTCQHWSAQTPHTHNRTPENFPCKNLDENYCRNPDGKRAPWCHTTNSQVRWEYCKIPSCDSSPVSTEQLAPTAPPELTPVVQDCYHGDGQSYRGTSSTTTTGKKCQSWSSMTPHRHQKTPENYPNAGLTMNYCRNPDADKGPWCFTTDPSVRWEYCNLKKCSGTEASVVAPPPVVLLPDVETPSEEDCMFGNGKGYRGKRATTVTGTPCQDWAAQEPHRHSIFTPETNPRAGLEKNYCRNPDGDVGGPWCYTTNPRKLYDYCDVPQCAAPSFDCGKPQVEPKKCPGRVVGGCVAHPHSWPWQVSLRTRFGMHFCGGTLISPEWVLTAAHCLEKSPRPSSYKVILGAHQEVNLEPHVQEIEVSRLFLEPTRKDIALLKLSSPAVITDKVIPACLPSPNYVVADRTECFITGWGETQGTFGAGLLKEAQLPVIENKVCNRYEFLNGRVQSTELCAGHLAGGTDSCQGDSGGPLVCFEKDKYILQGVTSWGLGCARPNKPGVYVRVSRFVTWIEGVMRNN
- limited degradation on longer incubation; cleavage sites by N-terminal sequencing: plasmin successively cleaved between 85 Arg and 86 Asp, and between 106 Lys and 107 Glu
- limited degradation; cleavage site by N-terminal sequencing of the fragments: plasmin specifically cleaves between 56 Lys and 57 Leu of latent TGF-β

Source: US20080038748
